± gives the uncertainty stated by the source.
Experiment: protein stability index of a GFP-peptide fusion (yeast GPS) (PSI 1-4); higher = more stable; sorted into four equal gates, so the index is relative within each strain
Procedure, shortened: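 Each library plasmid carries Cherry plus GFP with a tiled 17-residue yeast protein peptide fused downstream, and the pooled library was carried in yeast. Mid-log cultures in leucine-free medium were sorted into four equal gates by GFP/Cherry ratio. Reads from Illumina sequencing of PCR-amplified plasmids from each gate were assigned to strains by barcodes. Per peptide, the protein stability index was computed as the summed products of gate read frequency and gate number.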

Sequence	protein stability index (doa10∆)	protein stability index (pdr5∆)	protein stability index (san1∆)	protein stability index (ubr1∆)
IPSGNVWNYTFMGTAFN [PRP8]	2.76 ± 0.11	2.47 ± 0.16	2.74 ± 0.095	2.93 ± 0.068
IPSKNTPDASKPSFSFG [YLR335W/NUP2]	2.51 ± 0.15	3.14 ± 0.23	2.44 ± 0.2	2.78 ± 0.085
IPVNKRRGAHGSELSSK [SIR3]	3 ± 0.15	3.03 ± 0.15	3.11 ± 0.22	2.96 ± 0.19
IQFLTIGAGVPSLEVAS [FAS1]	1.18 ± 0.037	1.24 ± 0.056	1.2 ± 0.079	1.11 ± 0.039
IQIFRAHLWQKIHESIV [PRP8]	2.4 ± 0.098	2.52 ± 0.09	2.59 ± 0.073	2.47 ± 0.074
IQISKLHYTPIEDLWQF [RPC82]	2.26 ± 0.12	2.27 ± 0.13	2.09 ± 0.12	2.36 ± 0.15
IQLIKILNSHFDALRSL [YJL041W/NSP1]	2.54 ± 0.047	2.4 ± 0.039	2.95 ± 0.033	2.58 ± 0.035
IQLNGGSISEKVDWARE [RPL3]	2.66 ± 0.29	2.96 ± 0.12	2.88 ± 0.12	–
IQQLHSVLNPFLLRRVK [ISW2]	2.06 ± 0.061	1.99 ± 0.05	2.2 ± 0.059	2.37 ± 0.041
IQQVVEYADNDEDKFKK [PRP28]	3.06 ± 0.072	3.03 ± 0.093	3.24 ± 0.084	3.17 ± 0.047
IQSAESIKSQKEEISDQ [SWI3]	2.4 ± 0.26	3.08 ± 0.14	2.58 ± 0.098	2.85 ± 0.11
IQTKEQVSINSNKILVY [YIL149C/MLP2]	2.21 ± 0.076	2.75 ± 0.17	1.85 ± 0.21	2.96 ± 0.15
IRARIPFYGSYTETDPA [SRP54]	2.96 ± 0.092	2.91 ± 0.082	2.98 ± 0.06	2.96 ± 0.076
IRGAVGNSEAIPGLSAG [RTT102]	3.23 ± 0.057	3.36 ± 0.068	3.26 ± 0.088	3.43 ± 0.053
IRNVIMSASNANDFQLT [SRB8]	2.06 ± 0.048	2.34 ± 0.058	2.24 ± 0.087	2.19 ± 0.073
IRPLSKPMTAYARADTH [RRP6]	2.74 ± 0.08	2.9 ± 0.083	2.8 ± 0.065	2.89 ± 0.14
IRQAIAKGLVAYHQKYV [RPS16A]	1.21 ± 0.096	1.27 ± 0.069	1.41 ± 0.18	1.1 ± 0.033
IRRYCDVVAHRQLAGAI [DIS3]	1.91 ± 0.077	2.2 ± 0.065	1.99 ± 0.097	2.18 ± 0.1
IRTQVNTGGESVVKKED [RGR1]	3.32 ± 0.18	3.5 ± 0.093	3.41 ± 0.098	3.4 ± 0.088
IRVTNSFALPFEEDEKN [RPN8]	2.67 ± 0.062	2.48 ± 0.046	3.05 ± 0.044	3.15 ± 0.043

Sequence	protein stability index (doa10∆)	protein stability index (pdr5∆)	protein stability index (san1∆)	protein stability index (ubr1∆)
ISDDDDSALRYSILGDR [POP4]	3.12 ± 0.066	2.97 ± 0.093	2.61 ± 0.052	2.72 ± 0.089
ISIDSWPTTHKYPLGHF [DIS3]	2.38 ± 0.077	2.74 ± 0.11	3.04 ± 0.082	2.81 ± 0.072
ISIFSTPGSVSLSAYNL [PRP8]	2.61 ± 0.24	2.46 ± 0.09	–	1.81 ± 0.22
ISKQRTFAVILFLIIQC [YMR129W/POM152]	1.38 ± 0.051	1.38 ± 0.067	1.32 ± 0.087	1.51 ± 0.058
ISLYLLNLLSQNNTTKF [RPN12]	1.53 ± 0.044	1.72 ± 0.054	1.32 ± 0.073	1.36 ± 0.039
ISSGLLYLQDSNDKFVH [SRB8]	1.94 ± 0.087	1.48 ± 0.13	1.25 ± 0.15	1.14 ± 0.07
ISTRERDYLVDTLKLRE [RRP6]	3.07 ± 0.076	2.72 ± 0.061	2.97 ± 0.065	3.17 ± 0.06
ISVGLYDTTPLLDTNSL [SKI6]	2.57 ± 0.074	2.88 ± 0.13	2.48 ± 0.099	2.51 ± 0.14
ISVTRQVVLGGTSKYLI [SMC2]	2.65 ± 0.074	2.96 ± 0.14	2.79 ± 0.068	2.73 ± 0.062
ISYTSHIEGVVILKKNP [RPN1]	2.57 ± 0.059	3.14 ± 0.078	2.87 ± 0.077	2.52 ± 0.046
ITKDHKVLARQQLQVLA [FAS2]	1.29 ± 0.044	1.45 ± 0.062	1.82 ± 0.099	1.3 ± 0.047
ITKLHLDKDRKALIQRK [RPL26A]	2.1 ± 0.13	1.92 ± 0.094	2.49 ± 0.16	1.51 ± 0.091
ITKLLEINLSKIFQTTP [YCS4]	2.58 ± 0.054	2.23 ± 0.044	2.43 ± 0.042	2.6 ± 0.033
ITQIVEKDFCTSCLQNN [SRB8]	2.35 ± 0.065	2.71 ± 0.077	2.68 ± 0.081	2.28 ± 0.049
ITSLYALIRRDFTLIPR [CDC53]	2.95 ± 0.08	1.28 ± 0.071	1.18 ± 0.15	1.41 ± 0.031
ITVVLGVNGYIWLRKTS [RRP4]	1.61 ± 0.2	1.62 ± 0.12	1.34 ± 0.26	1.95 ± 0.11
ITYTPVRHGRAGATTSR [RPS15]	2.28 ± 0.11	2.24 ± 0.081	2.58 ± 0.088	2.92 ± 0.099
IVDKYIGESARIIREMF [RPT4]	2.5 ± 0.14	2.6 ± 0.088	2.48 ± 0.11	2.44 ± 0.079
IVGKSNVLVTMPVAPTM [YMR129W/POM152]	2.66 ± 0.12	2.56 ± 0.08	2.07 ± 0.17	2.65 ± 0.055

Source: the supplement of paper PMC9732359
